Patent publication US20250076311A1 (Chugai, published 2025)
Changes are numbered by the printed parent chain. One block for each binder: values may come before it.

Key:
[1] = biological target: T1, human FcγRIIaH extracellular domain, His-tagged (human, UniProt P12318 34-217); assay: SPR (BIACORE), antibody captured, FcγR analyte, 25 C; KD of SG1 divided by KD of variant
T1 construct: also called human FcγRIIa (type H); FcgRIIaH
T1 sequence: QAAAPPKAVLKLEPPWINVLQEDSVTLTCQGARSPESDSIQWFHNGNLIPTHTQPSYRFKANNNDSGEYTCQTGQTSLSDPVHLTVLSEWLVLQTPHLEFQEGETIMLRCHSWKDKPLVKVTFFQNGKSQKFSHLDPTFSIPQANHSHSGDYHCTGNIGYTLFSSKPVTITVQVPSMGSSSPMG

[2] = biological target: T2, cynomolgus monkey FcγRIIIaS extracellular domain, His-tagged (cynomolgus monkey, UniProt Q8SPW2 21-206 at identity 1.00)); assay: as above
T2 construct: also called cyno FcγRIIIaS; cynoFcgRIIIaS
T2 chain: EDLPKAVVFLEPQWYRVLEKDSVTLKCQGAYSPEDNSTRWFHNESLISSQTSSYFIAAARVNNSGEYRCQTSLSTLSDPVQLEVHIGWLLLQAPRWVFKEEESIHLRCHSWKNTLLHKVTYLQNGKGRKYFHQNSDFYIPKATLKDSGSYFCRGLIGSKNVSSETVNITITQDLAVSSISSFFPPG

[3] = biological target: T3, human FcγRIIb extracellular domain with C-terminal His-tag (human, UniProt P31994 43-217); assay: SPR; KD of SG1 / KD of variant
T3 construct: also called human FcgRIIb; FcgRIIb
T3 sequence: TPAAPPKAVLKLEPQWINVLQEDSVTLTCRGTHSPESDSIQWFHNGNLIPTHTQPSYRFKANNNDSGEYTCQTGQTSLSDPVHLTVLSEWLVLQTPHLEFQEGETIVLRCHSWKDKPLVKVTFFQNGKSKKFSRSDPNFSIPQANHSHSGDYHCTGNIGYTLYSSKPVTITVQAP

[4] = biological target: T4, cynomolgus monkey FcγRIIIaS extracellular domain with C-terminal His-tag (cynomolgus monkey, UniProt Q8SPW2 21-206 at identity 1.00)); assay: SPR; KD of SG1 / KD of variant
T4 construct: also called cyno FcγRIIIaS; FcgRIIIaS
T4 chain: T2 chain

[5] = biological target: T5, human FcγRIIaR extracellular domain with C-terminal His-tag (human, UniProt P12318 34-217); assay: SPR; KD of SG1 / KD of variant
T5 construct: also called human FcγRIIa (type R); FcgRIIaR
T5 chain: T1 sequence with H134R

[6] = biological target: T6, cynomolgus monkey FcγRIIb extracellular domain with C-terminal His-tag (cynomolgus monkey); assay: SPR; KD of SG1 / KD of variant
T6 construct: also called cyno FcγRIIb; cynoFcγRIIb
T6 chain: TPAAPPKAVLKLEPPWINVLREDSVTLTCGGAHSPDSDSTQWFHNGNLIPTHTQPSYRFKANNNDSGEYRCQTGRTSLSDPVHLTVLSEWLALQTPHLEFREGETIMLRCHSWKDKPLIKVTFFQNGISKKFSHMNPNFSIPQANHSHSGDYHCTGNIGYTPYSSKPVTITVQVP

[7] = biological target: T7, cynomolgus monkey FcγRIIa1 extracellular domain with C-terminal His-tag (cynomolgus monkey); assay: SPR; KD of SG1 / KD of variant
T7 construct: also called cyno FcγRIIa1; FcgRIIa1
T7 chain: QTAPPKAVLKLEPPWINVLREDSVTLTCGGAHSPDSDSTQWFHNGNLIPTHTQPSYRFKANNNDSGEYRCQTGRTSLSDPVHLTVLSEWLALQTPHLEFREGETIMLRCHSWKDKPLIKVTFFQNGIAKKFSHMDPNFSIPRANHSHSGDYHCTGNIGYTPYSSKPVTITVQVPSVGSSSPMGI

[8] = biological target: T8, cynomolgus monkey FcγRIIa3 extracellular domain with C-terminal His-tag (cynomolgus monkey); assay: SPR; KD of SG1 / KD of variant
T8 construct: also called cyno FcγRIIa3; FcgRIIa3
T8 chain: T7 chain with P95T, T121A, A128S, H133P, D135N

[9] = biological target: T9, human FcγRIIIaV extracellular domain with C-terminal His-tag (human, UniProt P08637 17-208); assay: SPR (Biacore), antibody captured, FcgR as analyte
T9 construct: also called human FcgRIIIaV
Protocol: The kinetic analysis of interactions between these antibodies and FcγR was carried out using BIACORE® T200 or BIACORE® 4000 (GE Healthcare). HBS-EP+ (GE Healthcare) was used as the running buffer, and the measurement temperature was set to 25° C. […] After the measurement, the antibody captured on the chip was washed off by allowing reaction with 10 mM glycine-HCl, pH1.5 and 25 mM NaOH so that the chip was regenerated and used repeatedly. The sensorgrams obtained as measurement results were analyzed by the 1:1 Langmuir binding model using the BIACORE® Evaluation Software to calculate the binding rate constant ka (L/mol/s) and dissociation rate constant kd (1/s), and the dissociation constant KD (mol/L) was calculated from these values. […] Regarding such interactions, KD values were calculated using the following 1:1 binding model described in BIACORE® T100 Software Handbook BR1006-48 Edition AE.
T9 sequence (P08637 17-208 F176V): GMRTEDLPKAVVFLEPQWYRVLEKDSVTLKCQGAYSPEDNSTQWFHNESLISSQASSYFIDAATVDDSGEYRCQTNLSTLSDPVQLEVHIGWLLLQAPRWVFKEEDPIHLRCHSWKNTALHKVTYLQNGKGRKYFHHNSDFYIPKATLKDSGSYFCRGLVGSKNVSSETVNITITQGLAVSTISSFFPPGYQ

[10] = biological target: T10, human FcγRIIaH extracellular domain with C-terminal His-tag (human, UniProt P12318 34-217); assay: SPR; KD of SG1 / KD of variant
T10 construct: also called human FcγRIIa (type H); FcgRIIaH
T10 sequence: T1 sequence

[11] = biological target: T11, cynomolgus monkey FcγRIIa2 extracellular domain with C-terminal His-tag (cynomolgus monkey); assay: SPR; KD of SG1 / KD of variant
T11 construct: also called cyno FcγRIIa2; FcgRIIa2
T11 chain: T7 chain with P95T, T121A, I127K, A128S, K130N, D135N, R142Q

[12] = biological target: T12, human FcγRIIIaV extracellular domain with C-terminal His-tag (human, UniProt P08637 17-208); assay: SPR; KD of SG1 / KD of variant
T12 construct: also called human FcgRIIIaV; FcgRIIIaV
T12 sequence (P08637 17-208 F176V): as above

- KD fold (SG1 = 1) [1]: 2.9 fold
- KD fold (SG1 = 1) [2]: 0.2 fold
B1: M103205H795-MY452/M103202L889-SK1 (antibody, human IgG1, kappa, name in EU numbering)
heavy: QVTLKESGPVLVKPTETLTLTCTVSGIDLSHDDISWVRQAPGKGLEWVGIISYAGSTYYASWAKGRLTISKDTSKNQVVLTMTNMDPVDTATYYCARGVPAYSHGGDLWGQGTLVTVSSASTKGPSVFPLAPSSKSTSGGTAALGCLVKDYFPEPVTVSWNSGALTSGVHTFPAVLQSSGLYSLSSVVTVPSSSLGTQTYICNVNHKPSNTKVDKKVEPKSCDKTHTCPPCPAQELLTGPSVFLFPPKPKDTLMISRTPEVTCVVVDVSDEDPEVKFNWYVDGVEVHNAKTKPREEQYNSTYRVVSVLTVLHQDWLNGKEYKCKVSNKALPKPIEKTISKAKGQPREPQVYTLPPSREEMTKNQVSLTCLVKGFYPSDIAVEWESNGQPENNYKTTPPVLDSDGSFFLYSKLTVDKSRWQQGNVFSCSVMHEALHNHYTQKSLSLSP
light: DIVMTQSPATLSLSPGERATLSCTSSQSVYHANWLSWFQQKPGQPPKLLIYWASTLAYGVPSRFSGSGSGTDFTLTISSLQPEDAATYYCAGGYGGGRYAFGQGTKVEIKRTVAAPSVFIFPPSDEQLKSGTASVVCLLNNFYPREAKVQWKVDNALQSGNSQESVTEQDSKDSTYSLSSTLTLSKADYEKHKVYACEVTHQGLSSPVTKSFNRGEC

- KD fold (SG1 = 1) [1]: 2.7 fold
- KD fold (SG1 = 1) [2]: 0.2 fold
B2: M103205H795-MY455/M103202L889-SK1 (antibody, human IgG1, kappa, name in EU numbering)
heavy: B1 heavy with Q234T
light: B1 light

- KD fold (SG1 = 1) [3]: 1.8 fold
- KD fold (SG1 = 1) [4]: 0.33 fold
- KD fold (SG1 = 1) [5]: 3 fold
- KD fold (SG1 = 1) [6]: 3.6 fold
B3: M103205H795-MY270 (heavy chain) with M103202L889-SK1 (light chain) (antibody, human IgG1, kappa, name in EU numbering)
heavy: B1 heavy with Q234P, T238H, P398K
light: B1 light
notes: Substitutions introduced into M103205H795-SG1; positions in EU numbering

- KD fold (SG1 = 1) [7]: 4.2 fold
- KD fold (SG1 = 1) [4]: 0.41 fold
- KD fold (SG1 = 1) [8]: 5.5 fold
- KD fold (SG1 = 1) [5]: 4 fold
B4: M103205H795-MY271 (heavy chain) with M103202L889-SK1 (light chain) (antibody, human IgG1, kappa, name in EU numbering)
heavy: B1 heavy with Q234P, T238V, P398K
light: B1 light
notes: as for B3

- Kd [9]: 9.3 µM
B5: M103205H795-MY392 / M103202L889-SK1 (antibody, human IgG1, kappa, name in EU numbering)
heavy: B1 heavy with Q234P, S300L
light: B1 light

- KD fold (SG1 = 1) [4]: 1.64 fold
- KD fold (SG1 = 1) [10]: 2.8 fold
B6: M103205H795-MY269 (heavy chain) with M103202L889-SK1 (light chain) (antibody, human IgG1, kappa, name in EU numbering)
heavy: B1 heavy with Q234P, T238M, P398K
light: B1 light
notes: as for B3

- KD fold (SG1 = 1) [4]: 0.49 fold
- KD fold (SG1 = 1) [10]: 5.3 fold
B7: M103205H795-MY281 (heavy chain) with M103202L889-SK1 (light chain) (antibody, human IgG1, kappa, name in EU numbering)
heavy: B1 heavy with Q234P, T238Q, Q297L
light: B1 light
notes: as for B3

- KD fold (SG1 = 1) [11]: 1.1 fold
- KD fold (SG1 = 1) [4]: 0.16 fold
- KD fold (SG1 = 1) [8]: 1.5 fold
- KD fold (SG1 = 1) [12]: 0.09 fold
B8: M103205H795-MY308 (heavy chain) with M103202L889-SK1 (light chain) (antibody, human IgG1, kappa, name in EU numbering)
heavy: B1 heavy with Q234P, D270E
light: B1 light
notes: as for B3

- KD fold (SG1 = 1) [11]: 3 fold
- KD fold (SG1 = 1) [7]: 2 fold
- KD fold (SG1 = 1) [3]: 1.2 fold
- KD fold (SG1 = 1) [4]: 0.12 fold
- KD fold (SG1 = 1) [8]: 2.5 fold
- KD fold (SG1 = 1) [5]: 2 fold
- KD fold (SG1 = 1) [12]: 0.05 fold
- KD fold (SG1 = 1) [6]: 3.1 fold
- KD fold (SG1 = 1) [10]: 6.3 fold
B9: M103205H795-MY285 (heavy chain) with M103202L889-SK1 (light chain) (antibody, human IgG1, kappa, name in EU numbering)
heavy: B1 heavy with Q234P, T238I, Q297L
light: B1 light
notes: as for B3

- KD fold (SG1 = 1) [3]: 3.8 fold
- KD fold (SG1 = 1) [4]: 1.24 fold
B10: M103205H795-MY272 (heavy chain) with M103202L889-SK1 (light chain) (antibody, human IgG1, kappa, name in EU numbering)
heavy: B1 heavy with Q234P, T238Q, P398K
light: B1 light
notes: as for B3

- KD fold (SG1 = 1) [3]: 6.8 fold
- KD fold (SG1 = 1) [4]: 1.29 fold
- KD fold (SG1 = 1) [5]: 13.1 fold
- KD fold (SG1 = 1) [12]: 0.51 fold
- KD fold (SG1 = 1) [6]: 3.9 fold
B11: M103205H795-MY143 (heavy chain) with M103202L889-SK1 (light chain) (antibody, human IgG1, kappa, name in EU numbering)
heavy: B1 heavy with Q234P, T238S, D270E, K332A, P398M
light: B1 light
notes: as for B3

- KD fold (SG1 = 1) [7]: 0.9 fold
- KD fold (SG1 = 1) [4]: 0.06 fold
- KD fold (SG1 = 1) [12]: 0.01 fold
B12: M103205H795-MY219 (heavy chain) with M103202L889-SK1 (light chain) (antibody, human IgG1, kappa, name in EU numbering)
heavy: B1 heavy with Q234P, T238G, G239Y
light: B1 light
notes: as for B3

- KD fold (SG1 = 1) [11]: 1.6 fold
- KD fold (SG1 = 1) [4]: 0.04 fold
- KD fold (SG1 = 1) [5]: 6.9 fold
- KD fold (SG1 = 1) [12]: 0.01 fold
B13: M103205H795-MY228 (heavy chain) with M103202L889-SK1 (light chain) (antibody, human IgG1, kappa, name in EU numbering)
heavy: B1 heavy with Q234P, T238G, G239Y, Q297L
light: B1 light
notes: as for B3

- KD fold (SG1 = 1) [7]: 0.9 fold
- KD fold (SG1 = 1) [4]: 0.21 fold
B14: M103205H795-MY273 (heavy chain) with M103202L889-SK1 (light chain) (antibody, human IgG1, kappa, name in EU numbering)
heavy: B1 heavy with Q234P, T238L, P398K
light: B1 light
notes: as for B3

- KD fold (SG1 = 1) [11]: 9.8 fold
- KD fold (SG1 = 1) [4]: 0.19 fold
- KD fold (SG1 = 1) [12]: 0.07 fold
- KD fold (SG1 = 1) [6]: 11.3 fold
B15: M103205H795-MY213 (heavy chain) with M103202L889-SK1 (light chain) (antibody, human IgG1, kappa, name in EU numbering)
heavy: B1 heavy with Q234P, T238N, P398K
light: B1 light
notes: as for B3

- KD fold (SG1 = 1) [4]: 0.58 fold
- KD fold (SG1 = 1) [12]: 0.32 fold
- KD fold (SG1 = 1) [10]: 8.5 fold
B16: M103205H795-MY274 (heavy chain) with M103202L889-SK1 (light chain) (antibody, human IgG1, kappa, name in EU numbering)
heavy: B1 heavy with Q234P, P398K
light: B1 light
notes: as for B3
